The values below come from the nanobody polyreactivity screen of Harvey et al. (2022).

This data set can be described thus: yeast display, Sf9 membrane polyspecificity reagent, FACS + sequencing; frameworks hold sequencing errors. In outline: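 A nanobody's polyreactivity label depends on the gate it was sorted from. Yeast display cells were stained with 10% biotinylated, detergent-solubilized Sf9 membrane reagent for 1 hour at 4 °C, enriched on streptavidin microbeads and sorted by FACS. The low and high (top ~1%) gates were set on anti-HA fluorescence for expression and streptavidin fluorescence for reagent binding.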
As to “QVQLVESGGGLVQAGGSLRLSCAASGRIFYQYAMGWYRQAPGKERELVAAISWSGGNTYYADSVKGRFTISRDNAKKTVYFQMNSLKPEDPAVYYCNRYWYRDRLWLYDYWGQGTQVTVSS”, the “polyreactivity (PSR sort gate)” value was “high polyreactivity”.

On to “QVQLVESGGGLVQAGGSLRLSCAASGRIFYQYAMGWYRQAPGKERELVASISRSGTRTYYADSVKGRFTISRDNAKNTVYLQMNSLKPEDTAVYYCAAGYNLYYGVIYGFDYWGQGTQVTVSS”, for which the “polyreactivity (PSR sort gate)” value is recorded as “high polyreactivity”.

Consider “QVQLVESGGGLVQAGGSLRLSCAASGRIFYQYAMGWYRQAPGKERELVASITTSGGNTYYADSVKGRFTISRDNAKITFYLQMNSLKPEDTAVYYCAARFNWRQWLYEYWGQGTQVTGSS”, for which the “polyreactivity (PSR sort gate)” value is given as “low polyreactivity”.

“QVQLVESGGGLVQAGGSLRLSCAASGRIFYQYAMGWYRQAPGKERELVASITTSGGNTYYADSVKGRFTISRDNAKNTVYLQMNSLKPEDTAVYYCAARFNWRQWLYDYWGQGTQVTVSS”: the “polyreactivity (PSR sort gate)” value is recorded as “low polyreactivity”.

For the sequence “QVQLVESGGGLVQAGGSLRLSCAASGRIFYRNAMGWYRQAPGKERELVAAISGSGGSTYYADSVKGRFTISRDNAKNTVYLQMNSLKPEDTAVYYCNVDRSPTHIVGYGYWGQGTQVTVSS”, the “polyreactivity (PSR sort gate)” value was “low polyreactivity”.

As to “QVQLVESGGGLVQAGGSLRLSCAASGRIFYRNAMGWYRQAPGKERELVAGITRGGSTNYADSVKGRFTISRDNAKNTVYLQMNSLKPEDTAVYYCAKAIPAKFYSEAGYDYWGQGTQVTVSS”, the “polyreactivity (PSR sort gate)” value is listed as “low polyreactivity”.

For the sequence “QVQLVESGGGLVQAGGSLRLSCAASGRIFYRNTMGWYRQAPGKERELVAAITRSGGITNYADSVKGRFTISRDNAKNTVYLQMNSLKPEDTAVYYCNAAYLYSASRGVYRYRGDYWGQGTQVTVSS”, the “polyreactivity (PSR sort gate)” value is listed as “high polyreactivity”.

Turning to “QVQLVESGGGLVQAGGSLRLSCAASGRIFYRNTMGWYRQAPGKERELVAAITWRAGRTYYADSVKGRFTISRDNAKNTVYLQMNSLKPEDTAVYYCNADRTAPERYSRVPSSDSWGQGTQVTVSS”, the “polyreactivity (PSR sort gate)” value is “high polyreactivity”.

Take “QVQLVESGGGLVQAGGSLRLSCAASGRIFYRYAMGWYIQAPWKERELVASISLSGDSTYYADSVKGRFTISRDNAKNTVYLQMNSLKREDTAFYYCDVEGLGAAVYAGDRYDYWGQGTQVTVSS”: the “polyreactivity (PSR sort gate)” value is listed as “low polyreactivity”.

“QVQLVESGGGLVQAGGSLRLSCAASGRIFYRYAMGWYRQAPGKERELVAAIRYSGGRTYYADSVKGRFTISRDNAKNTVYLQMNSLKPEDTAVYDCAADGHWYYAPFGGGDYENDYWGQGTQVTVSS”: the “polyreactivity (PSR sort gate)” value is “low polyreactivity”.

In the case of “QVQLVESGGGLVQAGGSLRLSCAASGRIFYRYAMGWYRQAPGKERELVAAISSGSSTNYADSVKGRFTISRDNAKNTVYLQMNSLKPEDTAVYYCNAERYGKSWRYCYWGQGTQVTVSS”, the “polyreactivity (PSR sort gate)” value is “high polyreactivity”.

Turning to “QVQLVESGGGLVQAGGSLRLSCAASGRIFYRYAMGWYRQAPGKERELVASISGSGGRTYYADSVKGRFTISRDNAKNTVDLQMNSLKPEDTAVYYCAARIRPSYDWGQGTQVTVSS”, the “polyreactivity (PSR sort gate)” value is “high polyreactivity”.

Regarding “QVQLVESGGGLVQAGGSLRLSCAASGRIFYRYAMGWYRQAPGKERELVATISSGGSTNYADSVKGRFTISRDNAKNTVYLQMNSLKPEDTAVYYCARQSLRYSYVSRDYWGQGTQVTVSS”, the “polyreactivity (PSR sort gate)” value is recorded as “low polyreactivity”.

As for “QVQLVESGGGLVQAGGSLRLSCAASGRIFYRYAMGWYRQAPGKERELVATMSWSGGSTYYADSVKGRFTISRDNAKNTVYVQMNSLKPEDTAVYYCNAAYGYVSRVYYLIEHDYWGQGTQVTVSS”, the “polyreactivity (PSR sort gate)” value is “high polyreactivity”.

“QVQLVESGGGLVQAGGSLRLSCAASGRIFYRYVMGWYRQAPGKERELVAAITSSGGSTYYADSVKGRFTISRDNAKNTVYLQMNSLKPEDTAVYYCAADRYTRYRYNYWGQGTQVTVSS”: the “polyreactivity (PSR sort gate)” value is recorded as “high polyreactivity”.

For the sequence “QVQLVESGGGLVQAGGSLRLSCAASGRIFYSNAMGWYRQAHGKERELVAAITGSGGRTHYADSVKGRFTISRDNAKNSVYLQMNSLKPEDTAVYYCAKDGYFPEFDYWGQGTQVTVSS”, the “polyreactivity (PSR sort gate)” value is “high polyreactivity”.

“QVQLVESGGGLVQAGGSLRLSCAASGRIFYSNAMGWYRQAPGKERELVAAITWRGGSTYYADSVKGRFTISRDNAKNTVYLQMNSLKPEDTAVYYCATDGYDDTHYYYWGQGTQVTVSS”: the “polyreactivity (PSR sort gate)” value was “low polyreactivity”.

Consider “QVQLVESGGGLVQAGGSLRLSCAASGRIFYSNTMGWYRQAPGKERELVAGITSSGGSTYYADSVKGRFTISRDNAKYTVYLQMNSLKPEDTAVYYCATSSVAEAKYVTEGTFDYWGQGTQVTVSS”, for which the “polyreactivity (PSR sort gate)” value was “low polyreactivity”.

In the case of “QVQLVESGGGLVQAGGSLRLSCAASGRIFYSYAMGGYRQAPGKERELVATITNGGSTNYADSVKGRFTISRDNAKNTVYLQMNSLKPEDPAVYYCATDQFTRSVDFDYWGQGTQVTVSS”, the “polyreactivity (PSR sort gate)” value was “high polyreactivity”.

In the case of “QVQLVESGGGLVQAGGSLRLSCAASGRIFYSYAMGWYRQAPGNERELVAAIPRSGGRTYYADSVKGRFTISRDKAKNTGYLQMNCLKPEDTAVYDCATVWPSISPYPGYNYWGQGTQVTVSS”, the “polyreactivity (PSR sort gate)” value was “high polyreactivity”.

For “QVQLVESGGGLVQAGGSLRLSCAASGRIFYTNAMGWYRQAPGKERELVAAISWRGGSTYYADSVKGRFTISRDNAKNTVYFQMNSLKPEDTAVYYCNRYYLSYNYDYWGQGTQVTVSS”, the “polyreactivity (PSR sort gate)” value is on record as “high polyreactivity”.

As to “QVQLVESGGGLVQAGGSLRLSCAASGRIFYTYAMGWYRQAPGKERELVAAITSSGGRTYYADSVKGRFTISRDNAKNTVYLQMNSLKPEVTAVYYCATRYPWGWAMNYWGQGTQVTVSS”, the “polyreactivity (PSR sort gate)” value is “high polyreactivity”.

In the case of “QVQLVESGGGLVQAGGSLRLSCAASGRIFYTYAMGWYRQAPGKERELVAGISRGGRTYYADSVKGRFTISRDNAKNSVYLQMNSLKPEDTAVYYCAARLQYGIQYRYDYWGQGTQVTVSS”, the “polyreactivity (PSR sort gate)” value is given as “high polyreactivity”.

For the sequence “QVQLVESGGGLVQAGGSLRLSCAASGRIFYTYAMGWYRQAPGKERELVSSITWSDGNTYYADSVKGRFTISRDNAKNTDYLQMNSLKPEDTAVYYCAAGDSFYVYLWPTYDYWGQGTQVTVSS”, the “polyreactivity (PSR sort gate)” value was “low polyreactivity”.

For “QVQLVESGGGLVQAGGSLRLSCAASGRIFYVYAMGWSRQAPGKERELVAAITSGGRTYYADSVKGRFTISRDNAKNTVYLQMNSLKPEDTAVYYCAARASSYNYWGQGTQVTVSS”, the “polyreactivity (PSR sort gate)” value is recorded as “high polyreactivity”.

For the sequence “QVQLVESGGGLVQAGGSLRLSCAASGRIFYVYAMGWYRQAPRKERELVAAITSGGSTYYADSVKGRFTISRDNAKNTVYLQMNSLKPEDTAVYYCAAYNRGRFRPYRFEYWGQGTQVTVSS”, the “polyreactivity (PSR sort gate)” value is “high polyreactivity”.

As to “QVQLVESGGGLVQAGGSLRLSCAASGRIFYWYAMGWYRQAPGKEREFVAAITSSGGSTYYADSVKGRFTISRDNAKNTVDLQMNSLKPEDTAVYYCAARNPYYTSRGYWGQGTQVTVSS”, the “polyreactivity (PSR sort gate)” value is given as “high polyreactivity”.

“QVQLVESGGGLVQAGGSLRLSCAASGRIFYWYAMGWYRQAPGKERELVAAISRSGSRTYYPDSVKGRFTISRDNAKNTVYLQMNSLKPEDTAVYYCAAVSGTGTAMDYWGQGTQVTVSS”: the “polyreactivity (PSR sort gate)” value is given as “high polyreactivity”.

On to “QVQLVESGGGLVQAGGSLRLSCAASGRIFYYNALGWYRPAPGKERELVAAISWSGGSTYYADSVKGRFTISRDNATNTVYLQMNSLKPEDTAVYYCAVDVYGYTPRPTREPLIYEYWGQGTQVTVSS”, for which the “polyreactivity (PSR sort gate)” value is reported as “low polyreactivity”.

Regarding “QVQLVESGGGLVQAGGSLRLSCAASGRIFYYNTMGWYRQAPGKERELVAAISRSGGSTYYADSVKGRFTISRDNAKNTVYLQMNSLKPEDTAVYYCAAVTHRYGNSEFDYWGLGTQVTVSS”, the “polyreactivity (PSR sort gate)” value is “high polyreactivity”.

As to “QVQLVESGGGLVQAGGSLRLSCAASGRIFYYNTMGWYRQAPGKERELVARITQRGGRTYYADSVKGRFTISRDYAKNTVYLQMNSLKPVDTAVYYFNAKVRGTNTAGVDYWGQGTQVTVSS”, the “polyreactivity (PSR sort gate)” value is recorded as “high polyreactivity”.

For “QVQLVESGGGLVQAGGSLRLSCAASGRIFYYTMVWYRQAPGKERELVAAISWSGGSTYYADSVKGRFTISRDNAKNTVYLQMNSLKPEDTAVYYCATRSRRLYHYDYWGQGTQVTVSS”, the “polyreactivity (PSR sort gate)” value was “high polyreactivity”.

On to “QVQLVESGGGLVQAGGSLRLSCAASGRIFYYYAMGWSRQAPGKERELVADITWSGGSTYYADSVKVRFTISRDNAKNTVYLQMNSLKTEDTAVYYCNADRLRSTHDYWGQGTQVTVSS”, for which the “polyreactivity (PSR sort gate)” value is given as “high polyreactivity”.

In the case of “QVQLVESGGGLVQAGGSLRLSCAASGRIFYYYAMGWYRQAPGKEREFVAAISGSGGTTYYADSVKGRFTISLDNAKNTVYLQMNSLKPEDTAVYYCNAKAVRGRYVWFDYWGQGTQVTVSS”, the “polyreactivity (PSR sort gate)” value was “high polyreactivity”.

Turning to “QVQLVESGGGLVQAGGSLRLSCAASGRIFYYYAMGWYRQAPGKERELVAAINRSGGSTYYADSVKGRFTISRDNAKNTVYLQKNSLKPEDTAVYYCASYDYWGQGSQVTVSS”, the “polyreactivity (PSR sort gate)” value is listed as “high polyreactivity”.

As for “QVQLVESGGGLVQAGGSLRLSCAASGRIFYYYAMGWYRQAPGKERELVAAISGGGGSTYYADSVKGRFTISRDNAKNTVYLQMNSLKPEDTAVYYCAAEGAKDYTVSYDYWGQGTQVTVSS”, the “polyreactivity (PSR sort gate)” value is on record as “high polyreactivity”.

For the sequence “QVQLVESGGGLVQAGGSLRLSCAASGRIFYYYAMGWYRQAPGKERELVAAISQRGGRTYYADSVKGRFTISRDIAKNTVYLQMNSLIPEDTAVYYCNAYPVYGRYTHYGYGHWGQGTKVTVSS”, the “polyreactivity (PSR sort gate)” value is reported as “high polyreactivity”.

On to “QVQLVESGGGLVQAGGSLRLSCAASGRIFYYYAMGWYRQAPGKERELVAGISSGSSTNYADSVKGRFTISRDNAKNTVYLQMNSLKPEDTAVYYCAAYPYFSVAANDDYWGQGTQVTVSS”, for which the “polyreactivity (PSR sort gate)” value was “low polyreactivity”.

Regarding “QVQLVESGGGLVQAGGSLRLSCAASGRIFYYYAMGWYRQAPGKERELVASINSVGTTTYADSVKGRVTISRDNAKNTVYLQMNSLKPEDTAVYYCARDTGSIYYDGYEYDYWGQGTQVTVSS”, the “polyreactivity (PSR sort gate)” value is on record as “low polyreactivity”.

Take “QVQLVESGGGLVQAGGSLRLSCAASGRIFYYYAMGWYRQAPGKERELVATITTSGKTYYADSVKGRFTISRDNAKNTVYLQMNSLKPEDTAVYYCNAGWDLVYGYYPRRKNFDYWGQGTKVTVSS”: the “polyreactivity (PSR sort gate)” value is recorded as “high polyreactivity”.

Turning to “QVQLVESGGGLVQAGGSLRLSCAASGRIFYYYAMGWYRQAPRKERELVAAISWSDDSTYYADSVKGRFTISRDNAKNTVYLQMNSLKPEDTAVYYCAADSIHYQFDYWGQGTQVTVSS”, the “polyreactivity (PSR sort gate)” value was “low polyreactivity”.
